Experimental data from publication PMC8979966.

These substances were tested against TCR 868 (single-chain Vbeta-linker-Valpha) (assay: not given). Conditions: higher = more enriched with TCR 868 than with the control TCR A6; not monotonic in affinity (misses both ways); scale: ratio: mean frequency with TCR 868 / mean frequency with control TCR A6, each normalised to the 3* stop peptide; numbering: sequential-on-construct, sequence starts at 1.

| Substance | screen value |
| --- | --- |
| SL9 peptide (HIV-1 Gag, […]) presented by HLA-A*02:01 3T (SLTNTVATL; codon ACG) | 1.07 |
| SL9 peptide (HIV-1 Gag, […]) presented by HLA-A*02:01 3T (SLTNTVATL; codon ACT) | 1.11 |

These substances were tested against TCR 868 (single-chain Vbeta-linker-Valpha) (assay: YAMTAD: yeast mating between pMHC-displaying and TCR-displaying yeast, diploid selection, deep sequencing; 3 biological x 4 technical repeats). Conditions: S. cerevisiae mating; TCR 868 group vs control TCR A6 group; higher = more enriched with TCR 868 than with the control TCR A6; not monotonic in affinity (misses both ways); not an affinity; keep out of graded; partner unresolved; scale: ratio: mean frequency with TCR 868 / mean frequency with control TCR A6, each normalised to the 3* stop peptide; numbering: sequential-on-construct, sequence starts at 1.

| Substance | screen value |
| --- | --- |
| SL9 peptide (HIV-1 Gag, […]) presented by HLA-A*02:01 3A (SLANTVATL; codon GCG) | 1.01 |
| SL9 peptide (HIV-1 Gag, […]) presented by HLA-A*02:01 3A (SLANTVATL; codon GCT) | 1.12 |
| SL9 peptide (HIV-1 Gag, […]) presented by HLA-A*02:01 3C (SLCNTVATL; codon TGT) | 1.1 |
| SL9 peptide (HIV-1 Gag, […]) presented by HLA-A*02:01 3D (SLDNTVATL; codon GAT) | 1.15 |
| SL9 peptide (HIV-1 Gag, […]) presented by HLA-A*02:01 3E (SLENTVATL; codon GAG) | 0.967 |
| SL9 peptide (HIV-1 Gag, […]) presented by HLA-A*02:01 3F (SLFNTVATL; codon TTT) | 2.02 |
| SL9 peptide (HIV-1 Gag, […]) presented by HLA-A*02:01 3G (SLGNTVATL; codon GGG) | 0.959 |
| SL9 peptide (HIV-1 Gag, […]) presented by HLA-A*02:01 3G (SLGNTVATL; codon GGT) | 0.969 |
| SL9 peptide (HIV-1 Gag, […]) presented by HLA-A*02:01 3H (SLHNTVATL; codon CAT) | 1.25 |
| SL9 peptide (HIV-1 Gag, […]) presented by HLA-A*02:01 3I (SLINTVATL; codon ATT) | 1.28 |
| SL9 peptide (HIV-1 Gag, […]) presented by HLA-A*02:01 3K (SLKNTVATL; codon AAG) | 1.21 |
| SL9 peptide (HIV-1 Gag, […]) presented by HLA-A*02:01 3L (SLLNTVATL; codon CTG) | 1.89 |
| SL9 peptide (HIV-1 Gag, […]) presented by HLA-A*02:01 3L (SLLNTVATL; codon CTT) | 2.02 |
| SL9 peptide (HIV-1 Gag, […]) presented by HLA-A*02:01 3L (SLLNTVATL; codon TTG) | 1.84 |
| SL9 peptide (HIV-1 Gag, […]) presented by HLA-A*02:01 3M (SLMNTVATL; codon ATG) | 1.16 |
| SL9 peptide (HIV-1 Gag, […]) presented by HLA-A*02:01 3N (SLNNTVATL; codon AAT) | 0.989 |
| SL9 peptide (HIV-1 Gag, […]) presented by HLA-A*02:01 3P (SLPNTVATL; codon CCG) | 1.03 |
| SL9 peptide (HIV-1 Gag, […]) presented by HLA-A*02:01 3P (SLPNTVATL; codon CCT) | 0.983 |
| SL9 peptide (HIV-1 Gag, […]) presented by HLA-A*02:01 3Q (SLQNTVATL; codon CAG) | 1.16 |
| SL9 peptide (HIV-1 Gag, […]) presented by HLA-A*02:01 3R (SLRNTVATL; codon AGG) | 1.06 |
| SL9 peptide (HIV-1 Gag, […]) presented by HLA-A*02:01 3R (SLRNTVATL; codon CGG) | 1.09 |
| SL9 peptide (HIV-1 Gag, […]) presented by HLA-A*02:01 3R (SLRNTVATL; codon CGT) | 1.04 |
| SL9 peptide (HIV-1 Gag, […]) presented by HLA-A*02:01 3S (SLSNTVATL; codon AGT) | 1.08 |
| SL9 peptide (HIV-1 Gag, […]) presented by HLA-A*02:01 3S (SLSNTVATL; codon TCG) | 1.06 |
| SL9 peptide (HIV-1 Gag, […]) presented by HLA-A*02:01 3S (SLSNTVATL; codon TCT) | 1.08 |
| SL9 peptide (HIV-1 Gag, […]) presented by HLA-A*02:01 3V (SLVNTVATL; codon GTG) | 1.11 |
| SL9 peptide (HIV-1 Gag, […]) presented by HLA-A*02:01 3V (SLVNTVATL; codon GTT) | 1.16 |
| SL9 peptide (HIV-1 Gag, […]) presented by HLA-A*02:01 3W (SLWNTVATL; codon TGG) | 1.2 |
